These results are taken from publication PMC10365013 (2022).

The target of assay [1] is PP1CA-MRAS (Homo sapiens, UniProt P62136). As to the kind of experiment: ITC.
Assay [2] concerns the target PP1CA-KRAS (Homo sapiens, UniProt P62136). As to the kind of experiment: SPR.
Assay [3] deals with PP1CA-NRAS (Homo sapiens, UniProt P62136). As to the kind of experiment: SPR.
The target in assay [4] is PP1CA-HRAS (Homo sapiens, UniProt P62136). As to the kind of experiment: SPR.

B1: SHOC2 (protein)
chain: MSSSLGKEKDSKEKDPKVPSAKEREKEAKASGGFGKESKEKEPKTKGKDAKDGKKDSSAAQPGVAFSVDNTIKRPNPAPGTRKKSSNAEVIKELNKCREENSMRLDLSKRSIHILPSSIKELTQLTELYLYSNKLQSLPAEVGCLVNLMTLALSENSLTSLPDSLDNLKKLRMLDLRHNKLREIPSVVYRLDSLTTLYLRFNRITTVEKDIKNLSKLSMLSIRENKIKQLPAEIGELCNLITLDVAHNQLEHLPKEIGNCTQITNLDLQHNELLDLPDTIGNLSSLSRLGLRYNRLSAIPRSLAKCSALEELNLENNNISTLPESLLSSLVKLNSLTLARNCFQLYPVGGPSQFSTIYSLNMEHNRINKIPFGIFSRAKVLSKLNMKDNQLTSLPLDFGTWTSMVELNLATNQLTKIPEDVSGLVSLEVLILSNNLLKKLPHGLGNLRKLRELDLEENKLESLPNEIAYLKDLQKLVLTNNQLTTLPRGIGHLTNLTHLGLGENLLTHLPEEIGTLENLEELYLNDNPNLHSLPFELALCSKLSIMSIENCPLSHLPPQIVAGGPSFIIQFLKMQGPYRAMV
modifications: GMPPNP
Regarding B1, the Kd in assay [1] was approximately 350 nM; in assay [2], 700 nM; in assay [3] it was 4000 nM; in assay [4], 2000 nM.
